In one assay the test system is LCMV-specific CD8 cells. Conditions: mouse, in vivo.
The target of another assay is T1, cathepsin B (Homo sapiens, UniProt P07858).
T1 construct: purchased Calbiochem or Athens Research and Technology
In words: Kinetics of cathepsin B inhibition by Spi2A. The assay is classed as biochemical.

The subject of another assay is RelA^−/− MEFs. In words: ROS production (dihydroethidium), RelA^−/− MEFs. Conditions: TNF-α 0.2 ng/ml, CHX 0.1 μg/ml; FIG. 5D. Format: cell-based, mouse. Here is the method:
Death effector assays. Death effector pathways were induced in […] MEFs by treatment TNF-α (0.2 ng/ml) and CHX (0.1 μg/ml). Assays for executioner proteases (caspases and cathepsin B) were performed on crude cytoplasmic extracts (Stegh et al., 2000). Briefly, MEFs (10^6) were lysed in 10 mM Tris-Cl, pH 7.5, 100 mM NaCl, 1 mM EDTA, 0.01% Triton X-100 (50 μl) for 30 min on ice then centrifuged at 15,000 g for 30 min at 4° C. and the supernatant recovered. Protein concentration was determined by Lowry assay (DC-protein assay kit, Biorad). Western immunoblots were performed on crude cytosolic extracts (50 μg per lane) using standard protocols and probed with the following antibodies: goat anti-mouse Bid antiserum (1 μg/ml; R&D systems), rabbit anti-human caspase 9 antiserum (2 μg/ml; Cell Signaling Technology), rabbit anti-human caspase 3 antiserum (2 μg/ml; Cell Signaling Technology), mouse anti-human caspase 8 monoclonal antibody clone 12F5 (1 μg/ml; Axxora). […]
Mitochondrial membrane potential and ROS production were measured using the fluorescent dyes JC-1 (3 μg/ml) and dihydroethidium (HE) (5 μM)(Molecular Probes) respectively, and flow cytometry according to the manufacturer's instructions.

The target in a further assay is T2, human cathepsin G (Homo sapiens, UniProt P08311).
T2 construct: purchased Calbiochem or Athens Research and Technology
T2 sequence (P08311 21-244): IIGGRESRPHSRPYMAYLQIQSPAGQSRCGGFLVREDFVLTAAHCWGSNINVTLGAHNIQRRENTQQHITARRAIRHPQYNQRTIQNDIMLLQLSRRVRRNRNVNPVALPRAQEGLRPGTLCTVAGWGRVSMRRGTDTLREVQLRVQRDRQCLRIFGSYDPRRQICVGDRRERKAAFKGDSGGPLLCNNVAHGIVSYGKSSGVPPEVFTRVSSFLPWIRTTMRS
In words: Protease specificity of Spi2A: cathepsin G. The assay is classed as biochemical. Particulars: protease 20 nM, Spi2A 200 nM, 1 h at 37° C; FIG. 6B. The method, then:
(§1) Protease specificity of Spi2A. RelA^−/− MEFs were transduced with retrovirus encoding Spi2A with a C-terminal 3×FLAG epitope tag and Spi2A-3×FLAG purified using a method described previously (Cooley et al., 1998). Briefly, cells (3×10^9) were lysed and Spi2A-3×FLAG (75 μg) purified by batch Q-Fast Flow ion-exchange chromatography (Pharmacia Biotech) after elution at 160-220 mM NaCl followed by anti-FLAG antibody columns, performed according to manufacturer's instructions (Sigma-Aldrich). Spi2A-3×FLAG was dialysed into PBS and stored as aliquots at −80° C. until needed.
(§2) Proteases were purchases from the manufacturers (Calbiochem or Athens Research and Technology) except granzymes A and B which were purified as described (Hanna et al., 1993) and cathespin V and K, which were purified as described (Bromme et al., 1999; Linnevers et al., 1997). Proteases (20 nM) were incubated in the appropriate assay buffer with Spi2A at 200 nM (at least 10-fold excess of inhibitor to maintain pseudo-first order conditions) for 1 h at 37° C. Control samples included only the enzyme, without the inhibitor. At the end of 1 h protease activity was assayed. […] Substrate hydrolysis was measured in a fluorescence microtiter plate reader (Spectramax Gemini XS, Molecular Devices). Percentage inhibition was calculated from the residual enzyme activity compared to no Spi2A controls. […]

The next assay addresses T3, human cathepsin H (Homo sapiens, UniProt P09668).
T3 construct: purchased Calbiochem or Athens Research and Technology
T3 sequence (P09668 98-335): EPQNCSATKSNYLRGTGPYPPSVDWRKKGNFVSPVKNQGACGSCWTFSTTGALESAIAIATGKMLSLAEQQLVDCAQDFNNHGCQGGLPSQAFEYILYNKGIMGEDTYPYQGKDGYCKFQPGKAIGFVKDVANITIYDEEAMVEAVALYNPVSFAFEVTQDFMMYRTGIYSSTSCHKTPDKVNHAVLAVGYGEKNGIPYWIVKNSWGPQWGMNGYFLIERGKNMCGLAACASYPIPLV
The assay is described as follows: Protease specificity of Spi2A: cathepsin H. Format: biochemical. Particulars: protease 20 nM, Spi2A 200 nM, 1 h at 37° C; FIG. 6B. Here is the method:
as §1, §2

B1: Spi2A: murine Spi2A polypeptide, SEQ ID NO:2; purified as C-terminal 3×FLAG protein or expressed from MIGR1 retrovirus in cells and bone-marrow chimeras (protein, listed as Mus musculus)
chain: MAGVSPAVFGCPDVTLGRNTAVREVQENVTSVDSLTLVSSNTDFAFSLYRKLVLKNPDENVVFSPFSICTALALLSLGAKSNTLKEILEGLKFNLTETPEPDIHQGFRYLLDLLSQPGNQVQISTGSALFIEKHLQILAEFKEKARALYQAEAFTADFQQPLKATKLINDYVSNHTQGKIKELISGLKESTLMVLVNYIYFKGKWKNPFDPNDTFKSEFYLDEKRSVIVSMMKTGYLTTPYFRDEELSCTVVELKYTGNASAMFILPDQGRMQQVEASLQPETLRKWKNSLKPRMIHELRLPKFSISTDYSLEHILPELGIREVFSTHADLSAITGTKDLRVSQVVHKAVLDVAEKGTEAAAATGMAGVGCCAVFDFLEIFFNRPFLMIISDTKAHIALFMAKVTNPERSTNFPNGEGASSQRLESKRLCFGDPLCLIGQ
modifications: C-terminal 3xFLAG tag
notes: purified as C-terminal 3×FLAG protein or expressed from MIGR1 retrovirus in cells and bone-marrow chimeras
As to B1, in the assay with LCMV-specific CD8 cells, the “Anti-LCMV CD8 cells as a percentage of the total GFP^+ CD8^+ cell population in PBLs” value is on record as “significantly elevated”, the “Level of anti-LCMV CD8 cells during the contraction phase” value is recorded as “considerable increase”, the “Level of anti-LCMV CD8 cells during the initial expansion phase” value is recorded as “did not increase” and the “Level of anti-LCMV CD8 cells during the memory phase” value is on record as “elevated level”. For the same molecule, in the assay on LCMV-specific CD8 cells, the “Residual level of anti-LCMV CD8 cells (level 56 days after infection as percentage of the maximum on day 14)” value is “significantly (p<0.001) higher”, the “Residual level of anti-LCMV CD8 cells (level after 98 days as percentage of the maximum after 14 days)” value is reported as “significantly higher” and the “Time for which the elevated memory-phase level was stable” value was “at least 14 weeks”. In addition, in the assay with cathepsin B (20 nM cathepsin B, 5 μM (Z-FR)2-R110, 200 or 400 nM Spi2A, pseudo-first order conditions), the “second-order association rate constant for the inhibition of cathepsin B” value is on record as > 10^6 M^−1 s^−1. Besides, the “Inhibition of cathepsin B within the dead time of the measurement” value with cathepsin B (dead time ˜30 s, 200 or 400 nM Spi2A) is on record as “completely inhibited”. The “production of reactive oxygen species (ROS)” value in the assay with RelA^−/− MEFs was “suppressed”. Further, the “Inhibition of protease by Spi2A (percentage inhibition)” value with human cathepsin G is listed as “inhibited”. For the same molecule, the “Inhibition of protease by Spi2A (percentage inhibition)” value with human cathepsin H is “extended to all of the lysosomal, papain-like proteases that were examined”.

The record behind these values is patent US20090324700A1, “METHODS AND COMPOSITIONS FOR THE INHIBITION OF CATHEPSINS” (priority 2003, published 2009).
